{
  "source": "FireProtDB (doi:10.1002/prot.1147)",
  "proteins": {"B1": {"name": "Lysozyme C wild type, P61626 (protein)", "chain": "MKALIVLGLVLLSVTVQGKVFERCELARTLKRLGMDGYRGISLANWMCLAKWESGYNTRATNYNAGDRSTDYGIFQINSRYWCNDGKTPGAVNACHLSCSALLQDNIADAVACAKRVVRDPQGIRAWVAWRNRCQNRDVRQYVQGCGV"}},
  "details": "Homo sapiens; pH 2.7; Thermal; DSC; Gly-HCl 0.05 M; reversible: yes; whole UniProt chain shown",
  "data": [
    {"protein": "B1", "values": [
      {"measurement": "Tm", "value": 64.9, "unit": "°C"},
      {"measurement": "heat capacity change of unfolding", "value": 1.58, "unit": "kcal/mol/K"},
      {"measurement": "unfolding enthalpy (van 't Hoff)", "value": 114, "unit": "kcal/mol"}
    ]}
  ]
}
